Measured values published in patent US20140212406.

Target: plasminogen

B1: rat single-chain tPA with arginine to serine point mutation at position 276 (R276S), 6xHis-tagged (protein)
chain: HHHHHHSYRATCRDEQTQTTYQQHQSWLRPMLRGNRVEYCRCNSGLAQCHSVPVRSCSEPRCFNGGTCQQALYFSDFVCQCPDGFVGKRCDIDTRATCFEGQGITYRGTWSTAENGAECINWNSSALSQKPYSARRPNAIKLGLGNHNYCRNPDRDVRPWCYVFKAGKYTTEFCSTPACPKGPTEDCYVGKGVTYRGTHSFTTSKASCLPWNSMILIGKTYTAWRANSQALGLGRHNYCRNPDGDAKPWCHVMKDRKLTWEYCDMSPCSTCGLRQYKQPLFSIKGGLFTDITSHPWQAAIFVKNKRSPGERFLCGGVLISSCWVLSAAHCFVERFPPHHLKVVLGRTYRVVPGEEEQTFEIEKYIVHKEFDDDTYDNDIALLQLRSDSSQCAQESSSVGTACLPDPDVQLPDWTECELSGYGKHEASSPFFSDRLKEAHVRLYPSSRCTSQHLFNKTITSNMLCAGDTRTGGNQDVHDACQGDSGGPLVCMIDKRMTLLGIISWGLGCGQKDVPGIYTKVTNYLNWIQDNMKQ
- conversion of plasminogen into plasmin (fibrin agarose zymography; PPP-clot lysis): Whereas sc*-tPA is not able to promote alone the conversion of plasminogen into plasmin, its fibrin cofactor partially brings back its plasminogen activation function
